Measured values reported in patent US12630600B2 (MEDIMMUNE LIMITED, priority 2022, dated 2026).
Starred links: 1 amine or outer side, 2 acyl side, 3 side chain; linkers in the order of their positions; H or OH if unused. Non-standard residues stand in square brackets, D forms with d. Groups on a side chain read outwards from the residue. No end group written: not given here. *: point of attachment. β‑dimethylGln = β-dimethylglutamine, CC(C)(CC(N)=O)[C@H](N[*:1])C(=O)[*:2]; C20 diacid = O=C(O)CCCCCCCCCCCCCCCCCCC(=O)*; C18 diacid = O=C(O)CCCCCCCCCCCCCCCCC(=O)*; γGlu = O=C(O)[C@H](CCC(=O)[*:2])N[*:1]; αMeF = C[C@](N)(Cc1ccccc1)C(=O)O; NMeQ = CN[C@@H](CCC(N)=O)C(=O)O; AEEA = NCCOCCOCC(=O)O; Aib = CC(C)(N)C(=O)O

B1: Peptide 339 (peptide)
peptide: H[Aib]QGTFTSDYSK[αMeF]LD[αMeF]RRAK([γGlu-C18 diacid])DFVQWLL[Aib]T-OH
modifications: N-terminus assumed
SMILES: CC(C)C[C@H](NC(=O)[C@H](Cc1c[nH]c2ccccc12)NC(=O)[C@H](CCC(N)=O)NC(=O)[C@@H](NC(=O)[C@H](Cc1ccccc1)NC(=O)[C@H](CC(=O)O)NC(=O)[C@H](CCCCNC(=O)CC[C@H](NC(=O)CCCCCCCCCCCCCCCCC(=O)O)C(=O)O)NC(=O)[C@H](C)NC(=O)[C@H](CCCNC(=N)N)NC(=O)[C@H](CCCNC(=N)N)NC(=O)[C@](C)(Cc1ccccc1)NC(=O)[C@H](CC(=O)O)NC(=O)[C@H](CC(C)C)NC(=O)[C@](C)(Cc1ccccc1)NC(=O)[C@H](CCCCN)NC(=O)[C@H](CO)NC(=O)[C@H](Cc1ccc(O)cc1)NC(=O)[C@H](CC(=O)O)NC(=O)[C@H](CO)NC(=O)[C@@H](NC(=O)[C@H](Cc1ccccc1)NC(=O)[C@@H](NC(=O)CNC(=O)[C@H](CCC(N)=O)NC(=O)C(C)(C)NC(=O)[C@@H](N)Cc1c[nH]cn1)[C@@H](C)O)[C@@H](C)O)C(C)C)C(=O)N[C@@H](CC(C)C)C(=O)NC(C)(C)C(=O)N[C@H](C(=O)O)[C@@H](C)O
B2: Peptide 305 (peptide)
peptide: H[Aib]HGS[αMeF]TSDVSK[αMeF]LDSRAAK([AEEA-AEEA-γGlu-γGlu-C20 diacid])D[αMeF]VQ[Aib]IANT-NH2
modifications: N-terminus assumed
SMILES: CC[C@H](C)[C@H](NC(=O)C(C)(C)NC(=O)[C@H](CCC(N)=O)NC(=O)[C@@H](NC(=O)[C@](C)(Cc1ccccc1)NC(=O)[C@H](CC(=O)O)NC(=O)[C@H](CCCCNC(=O)COCCOCCNC(=O)COCCOCCNC(=O)CC[C@H](NC(=O)CC[C@H](NC(=O)CCCCCCCCCCCCCCCCCCC(=O)O)C(=O)O)C(=O)O)NC(=O)[C@H](C)NC(=O)[C@H](C)NC(=O)[C@H](CCCNC(=N)N)NC(=O)[C@H](CO)NC(=O)[C@H](CC(=O)O)NC(=O)[C@H](CC(C)C)NC(=O)[C@](C)(Cc1ccccc1)NC(=O)[C@H](CCCCN)NC(=O)[C@H](CO)NC(=O)[C@@H](NC(=O)[C@H](CC(=O)O)NC(=O)[C@H](CO)NC(=O)[C@@H](NC(=O)[C@](C)(Cc1ccccc1)NC(=O)[C@H](CO)NC(=O)CNC(=O)[C@H](Cc1c[nH]cn1)NC(=O)C(C)(C)NC(=O)[C@@H](N)Cc1c[nH]cn1)[C@@H](C)O)C(C)C)C(C)C)C(=O)N[C@@H](C)C(=O)N[C@@H](CC(N)=O)C(=O)N[C@H](C(N)=O)[C@@H](C)O
B3: Peptide 342 (peptide)
peptide: H[Aib]QGTFTSDYSK[αMeF]LDSRRAK([γGlu-C18 diacid])DFVQWLLE[Aib]T-OH
modifications: N-terminus assumed
SMILES: CC(C)C[C@H](NC(=O)[C@H](Cc1c[nH]c2ccccc12)NC(=O)[C@H](CCC(N)=O)NC(=O)[C@@H](NC(=O)[C@H](Cc1ccccc1)NC(=O)[C@H](CC(=O)O)NC(=O)[C@H](CCCCNC(=O)CC[C@H](NC(=O)CCCCCCCCCCCCCCCCC(=O)O)C(=O)O)NC(=O)[C@H](C)NC(=O)[C@H](CCCNC(=N)N)NC(=O)[C@H](CCCNC(=N)N)NC(=O)[C@H](CO)NC(=O)[C@H](CC(=O)O)NC(=O)[C@H](CC(C)C)NC(=O)[C@](C)(Cc1ccccc1)NC(=O)[C@H](CCCCN)NC(=O)[C@H](CO)NC(=O)[C@H](Cc1ccc(O)cc1)NC(=O)[C@H](CC(=O)O)NC(=O)[C@H](CO)NC(=O)[C@@H](NC(=O)[C@H](Cc1ccccc1)NC(=O)[C@@H](NC(=O)CNC(=O)[C@H](CCC(N)=O)NC(=O)C(C)(C)NC(=O)[C@@H](N)Cc1c[nH]cn1)[C@@H](C)O)[C@@H](C)O)C(C)C)C(=O)N[C@@H](CC(C)C)C(=O)N[C@@H](CCC(=O)O)C(=O)NC(C)(C)C(=O)N[C@H](C(=O)O)[C@@H](C)O
B4: Peptide 325 (peptide)
peptide: HS[NMeQ]GS[αMeF]TSDVSK[αMeF]LDSRAAK([AEEA-AEEA-γGlu-C18 diacid])D[αMeF]VQ[Aib]IANT-NH2
modifications: N-terminus assumed
SMILES: CC[C@H](C)[C@H](NC(=O)C(C)(C)NC(=O)[C@H](CCC(N)=O)NC(=O)[C@@H](NC(=O)[C@](C)(Cc1ccccc1)NC(=O)[C@H](CC(=O)O)NC(=O)[C@H](CCCCNC(=O)COCCOCCNC(=O)COCCOCCNC(=O)CC[C@H](NC(=O)CCCCCCCCCCCCCCCCC(=O)O)C(=O)O)NC(=O)[C@H](C)NC(=O)[C@H](C)NC(=O)[C@H](CCCNC(=N)N)NC(=O)[C@H](CO)NC(=O)[C@H](CC(=O)O)NC(=O)[C@H](CC(C)C)NC(=O)[C@](C)(Cc1ccccc1)NC(=O)[C@H](CCCCN)NC(=O)[C@H](CO)NC(=O)[C@@H](NC(=O)[C@H](CC(=O)O)NC(=O)[C@H](CO)NC(=O)[C@@H](NC(=O)[C@](C)(Cc1ccccc1)NC(=O)[C@H](CO)NC(=O)CNC(=O)[C@H](CCC(N)=O)N(C)C(=O)[C@H](CO)NC(=O)[C@@H](N)Cc1c[nH]cn1)[C@@H](C)O)C(C)C)C(C)C)C(=O)N[C@@H](C)C(=O)N[C@@H](CC(N)=O)C(=O)N[C@H](C(N)=O)[C@@H](C)O
B5: Peptide 324 (peptide)
peptide: HS[β‑dimethylGln]GS[αMeF]TSDVSK[αMeF]LDSRAAK([AEEA-AEEA-γGlu-C18 diacid])D[αMeF]VQ[Aib]IANT-NH2
modifications: N-terminus assumed
SMILES: CC[C@H](C)[C@H](NC(=O)C(C)(C)NC(=O)[C@H](CCC(N)=O)NC(=O)[C@@H](NC(=O)[C@](C)(Cc1ccccc1)NC(=O)[C@H](CC(=O)O)NC(=O)[C@H](CCCCNC(=O)COCCOCCNC(=O)COCCOCCNC(=O)CC[C@H](NC(=O)CCCCCCCCCCCCCCCCC(=O)O)C(=O)O)NC(=O)[C@H](C)NC(=O)[C@H](C)NC(=O)[C@H](CCCNC(=N)N)NC(=O)[C@H](CO)NC(=O)[C@H](CC(=O)O)NC(=O)[C@H](CC(C)C)NC(=O)[C@](C)(Cc1ccccc1)NC(=O)[C@H](CCCCN)NC(=O)[C@H](CO)NC(=O)[C@@H](NC(=O)[C@H](CC(=O)O)NC(=O)[C@H](CO)NC(=O)[C@@H](NC(=O)[C@](C)(Cc1ccccc1)NC(=O)[C@H](CO)NC(=O)CNC(=O)[C@@H](NC(=O)[C@H](CO)NC(=O)[C@@H](N)Cc1c[nH]cn1)C(C)(C)CC(N)=O)[C@@H](C)O)C(C)C)C(C)C)C(=O)N[C@@H](C)C(=O)N[C@@H](CC(N)=O)C(=O)N[C@H](C(N)=O)[C@@H](C)O
B6: Peptide 340 (peptide)
peptide: H[Aib]QGTFTSDYSK[αMeF]LDSRRAK([γGlu-C18 diacid])DFVQWLL[Aib]E-OH
modifications: N-terminus assumed
SMILES: CC(C)C[C@H](NC(=O)[C@H](Cc1c[nH]c2ccccc12)NC(=O)[C@H](CCC(N)=O)NC(=O)[C@@H](NC(=O)[C@H](Cc1ccccc1)NC(=O)[C@H](CC(=O)O)NC(=O)[C@H](CCCCNC(=O)CC[C@H](NC(=O)CCCCCCCCCCCCCCCCC(=O)O)C(=O)O)NC(=O)[C@H](C)NC(=O)[C@H](CCCNC(=N)N)NC(=O)[C@H](CCCNC(=N)N)NC(=O)[C@H](CO)NC(=O)[C@H](CC(=O)O)NC(=O)[C@H](CC(C)C)NC(=O)[C@](C)(Cc1ccccc1)NC(=O)[C@H](CCCCN)NC(=O)[C@H](CO)NC(=O)[C@H](Cc1ccc(O)cc1)NC(=O)[C@H](CC(=O)O)NC(=O)[C@H](CO)NC(=O)[C@@H](NC(=O)[C@H](Cc1ccccc1)NC(=O)[C@@H](NC(=O)CNC(=O)[C@H](CCC(N)=O)NC(=O)C(C)(C)NC(=O)[C@@H](N)Cc1c[nH]cn1)[C@@H](C)O)[C@@H](C)O)C(C)C)C(=O)N[C@@H](CC(C)C)C(=O)NC(C)(C)C(=O)N[C@@H](CCC(=O)O)C(=O)O
B7: Peptide 522 (peptide)
peptide: H[Aib]QGTFTSDVSK[αMeF]LDSERAK([AEEA-AEEA-γGlu-C18 diacid])DFVAWLEAGG-OH
modifications: N-terminus assumed
SMILES: CC(C)C[C@H](NC(=O)[C@H](Cc1c[nH]c2ccccc12)NC(=O)[C@H](C)NC(=O)[C@@H](NC(=O)[C@H](Cc1ccccc1)NC(=O)[C@H](CC(=O)O)NC(=O)[C@H](CCCCNC(=O)COCCOCCNC(=O)COCCOCCNC(=O)CC[C@H](NC(=O)CCCCCCCCCCCCCCCCC(=O)O)C(=O)O)NC(=O)[C@H](C)NC(=O)[C@H](CCCNC(=N)N)NC(=O)[C@H](CCC(=O)O)NC(=O)[C@H](CO)NC(=O)[C@H](CC(=O)O)NC(=O)[C@H](CC(C)C)NC(=O)[C@](C)(Cc1ccccc1)NC(=O)[C@H](CCCCN)NC(=O)[C@H](CO)NC(=O)[C@@H](NC(=O)[C@H](CC(=O)O)NC(=O)[C@H](CO)NC(=O)[C@@H](NC(=O)[C@H](Cc1ccccc1)NC(=O)[C@@H](NC(=O)CNC(=O)[C@H](CCC(N)=O)NC(=O)C(C)(C)NC(=O)[C@@H](N)Cc1c[nH]cn1)[C@@H](C)O)[C@@H](C)O)C(C)C)C(C)C)C(=O)N[C@@H](CCC(=O)O)C(=O)N[C@@H](C)C(=O)NCC(=O)NCC(=O)O

target: human GLP-1 receptor (human, UniProt P43220); experiment: cell-based or functional assay

Row | Binder | hGLP-1R EC50 (pM)
1 | B1 | 312
2 | B2 | 211
3 | H[dS]QGS[αMeF]TSDVSK[αMeF]LDSRAAK([AEEA-AEEA-γGlu-C18 diacid])D[αMeF]VQ[Aib]IANT [Peptide 331] | 62.6
4 | B3 | 220
5 | B4 | 929
6 | H[Aib]QGT[αMeF]TSDVSK[αMeF]LDSRAAK([AEEA-AEEA-γGlu-C18 diacid])D[αMeF]VQ[Aib]IANT-NH2 (not fully specified) [Peptide 321] | 22.6
7 | B5 | 1330
8 | H[Aib]QGTFTSDVSK[αMeF]LDSRAAK([AEEA-AEEA-γGlu-C18 diacid])DFVQWIANT-NH2 (not fully specified) [Peptide 318] | 55.2
9 | H[Aib]QGS[αMeF]TSDVSK[αMeF]LDSRAAKD[αMeF]VQ[Aib]IANT-NH2 (not fully specified (residue 20)) [Peptide 322] | 68.3
10 | B6 | 312
11 | H[Aib]QGTFTSDVSK[αMeF]LDSRAAK([AEEA-AEEA-γGlu-C18 diacid])DFVQ[Aib]LVAT-NH2 (not fully specified) [Peptide 315] | 18.1
12 | B7 | 508

target: human glucagon receptor (human, UniProt P47871); experiment: cell-based or functional assay

Row | Binder | hGluc-R EC50 (pM)
13 | B1 | 70.3
14 | B2 | 155
15 | H[dS]QGS[αMeF]TSDVSK[αMeF]LDSRAAK([AEEA-AEEA-γGlu-C18 diacid])D[αMeF]VQ[Aib]IANT [Peptide 331] | 66.6
16 | B3 | 4830
17 | B4 | > 25500
18 | H[Aib]QGT[αMeF]TSDVSK[αMeF]LDSRAAK([AEEA-AEEA-γGlu-C18 diacid])D[αMeF]VQ[Aib]IANT-NH2 (not fully specified) [Peptide 321] | 4400
19 | B5 | 1930
20 | H[Aib]QGTFTSDVSK[αMeF]LDSRAAK([AEEA-AEEA-γGlu-C18 diacid])DFVQWIANT-NH2 (not fully specified) [Peptide 318] | 12000
21 | H[Aib]QGS[αMeF]TSDVSK[αMeF]LDSRAAKD[αMeF]VQ[Aib]IANT-NH2 (not fully specified (residue 20)) [Peptide 322] | > 24700
22 | B6 | 94.7
23 | H[Aib]QGTFTSDVSK[αMeF]LDSRAAK([AEEA-AEEA-γGlu-C18 diacid])DFVQ[Aib]LVAT-NH2 (not fully specified) [Peptide 315] | 5850
24 | B7 | 6360
